Columns and labels:
HCE-T cells = assay: FOXO3 translocation assay in IFNG/TNF stressed HCE-T cells; type: cell-based, human; conditions: dry eye tears 1:100, 10 nM, 15 min
Description: For FOXO3 translocation assays, HCE-T cells were grown in triplicate to subconfluence (˜50%) on coverslips in α-MEM (5.54 mm glucose), sensitized overnight in IFNG (100 units/ml; Roche Applied Science), and treated for 15 min with normal or dry eye tears diluted 1:100 in α-MEM together with TNF (50 ng/ml; PeproTech, Rocky Hill, N.J.) without or with 10 nm lacritin or C-25. Cells were washed, fixed with 4% paraformaldehyde, and immunostained for FOXO3 (1:200; Millipore, Billerica, Mass.) followed by goat anti-rabbit secondary antibody and visualization on a Zeiss LSM 700 microscope.

[1] = test system: primary human corneal epithelial cells; assay: FOXO3 translocation in INFG/TNF stressed primary human corneal epithelial cells; type: cell-based
Aire(−/−) dry eye mice = assay: Topical treatment of Aire(-/-) dry eye mice; type: in vivo, mouse
Description: Autoimmune regulator (Aire)-deficient [Aire^−/−] mice spontaneously develop dry eye without need for dry chambers or scopolamine Aire^−/− mice were dosed three times daily for three weeks with 10 μl of 50 μg/mllacritin, or in controls with PBS. Several different assays monitored the consequences. […] Topical lacritin reduced CD4+T cell infiltration into lacrimal glands measured as the number of lymphocytic foci/per millimeter square area of lacrimal gland tissue (3.68±0.65 per mm sq lacritin vs. 9.7+1.5 per mm sq PBS; P=0.01), but had no apparent effect on the pattern or distribution of CD4+T cells into either the corneal stroma (14.6±1.6 lacritin vs 12.4±2.1 PBS) or the limbus (29.6±2.5 lacritin vs 34.6±2.9 PBS.
To assess ocular surface mucosal damage from dry eye, eyes of Aire(−/−) dry eye mice were topically administered lissamine green that increasingly stained PBS-treated eyes with time (See FIG. 4C). […] Thus, topical lacritin, and its bioactive fragments thereof, diminished lacrimal gland inflammation and corneal staining in dry eye, and promoted ocular surface differentiation. Importantly, suppression of inflammation and promotion of tearing was achieved without direct contact with inflammatory cells nor with tear producing cells.

corneal sensory nerves = assay: Corneal sensory nerve activity monitored at the trigeminal ganglion; type: in vivo, rat
Source text: Topical lacritin stimulates tearing even without physical access to lacrimal acinar cells. The rapidity of the response is in keeping with corneal sensory nerve activation. Individual corneal sensory nerve activity was monitored at the level of the trigeminal ganglion in rats via previously described methods. Emerging from these studies was the observation that topical lacritin is neural stimulatory. […] The ‘dry response’ refers to neural activation as a consequence of drying of the cornea, which is thought to be a critical TRPM8-mediated stimulus for tearing, while the ‘wet response’ occurs when the agonist is present at the corneal nerve terminals. […] Apparent inhibition of the action potentials by lacritin during wet cornea was small because the TRPM8 activity during wet cornea is low to begin with, while it reaches optimal level during dry cornea when dynamic cooling of the ocular surface is taking place. Lacritin may also increase TRPM8 neural density.

[2] = type: in vitro ADME, human
Description: A limitation of most synthetic peptide drugs is their protease sensitivity. […] Retropepsin would inactivate LACRIPEP, while cathepsin K would have no effect. However neither protease is found in normal human tears. Nonetheless, tears are rich in other proteases. We therefore incubated LACRIPEP in normal human tears at 37° C. for 2, 4, 6 and 16 hr. For immunoblotting, we first removed all endogenous lacritin by immunodepletion. […] (FIG. 6B).

E. coli = assay: Lacritin inhibition (colony count) assay, E. coli; type: cell-based; conditions: 2 uM, mid-log E. coli
Description: (§1) Bacterial Growth, SYTOX Green Assays, and on Column Cleavage—E. coli (ATCC (Manassas Va.) catalog no. 10536), S. epidermidis (ATCC catalog no. 12228), and P. aeruginosa (ATCC catalog no. 9027) were grown to mid-log phase in 50 ml of Luria-Bertani (LB) medium and washed three times in phosphate buffer containing 10 mM NaCl (pH 7.2; PB—NaCl) with centrifugation. Pellets were resuspended in 1 ml of PB—NaCl.
(§2) For lacritin inhibition assays, 50 ul of bacterial pellets each diluted 1:100 in PB—NaCl were incubated for 1.5 h (37° C.) with 100 ul of lacritin, lacritin truncations, or synthetic peptides at a final concentration of 0.1-6 uM. Mixtures were diluted 1:10 in PB—NaCl before plating 100 ul in quadruplicate on LB agar plates for overnight growth at 37° C. Colonies were manually counted. In other experiments, mid-log E. coli was treated at 37° C. for 0, 1, 2, or 3 h with 2 uM lacritin or lacritin truncations or with ampicillin (5 uM) or tetracycline (2 uM). After each treatment, 100 ul was centrifuged, resuspended in 1 ml of PB—NaCl, and plated (100 ul) onto LB agar for overnight growth (37° C.) and colony counting.

P. aeruginosa = assay: Lacritin inhibition (colony count) assay, P. aeruginosa; type: cell-based; conditions: 2 uM, mid-log P. aeruginosa
Description: as §1, §2

S. epidermidis = assay: Lacritin inhibition (colony count) assay, S. epidermidis; type: cell-based; conditions: 2 uM, mid-log S. epidermidis
Description: as §1, §2

bacteria = assay: Lacritin inhibition (colony count) assay, bacterium not given; type: cell-based; conditions: whole protein
Description: as §1, §2

basal tearing = conditions: Sumadre et al. 2011, cited from earlier work

B1: lacritin: 12.3 kDa secreted tear glycoprotein; recombinant, generated in Escherichia coli (protein, listed as Homo sapiens)
chain: MKFTTLLFLAAVAGALVYAEDASSDSTGADPAQEAGTSKPNEEISGPAEPASPPETTTTAQETSAAAVQGTAKVTSSRQELNPLKSIVEKSILLTEQALAKAGKGMHGGVPGGKQFIENGSEFAQKLLKKFSLLKPWA
HCE-T cells
  FOXO3 translocation to the cytoplasm by dry eye tears spiked with the substance: translocated FOXO3 to the cytoplasm
[1]
  FOXO3 translocation: translocated FOXO3
Aire(−/−) dry eye mice
  Keratin 10 levels (skin epidermal marker): diminished levels
  Keratin 12 expression (corneal marker): 80.1±4.8%
  Lissamine green staining: −0.417±0.06
Aire(−/−) dry eye mice; three times daily for three weeks, 10 μl of 50 μg/ml
  Lymphocytic foci per millimeter square area of lacrimal gland tissue (CD4+T cell infiltration): 3.68±0.65 per mm sq
Aire(−/−) dry eye mice; three weeks
  CD4+T cells in corneal stroma: 14.6±1.6
  CD4+T cells in limbus: 29.6±2.5
Corneal sensory nerves; 10 μM, from ˜12 before
  Corneal neuron activity immediately after application: ~8 spikes/s
  Wet response after 1 hr and washout: ~16 spikes/s
Corneal sensory nerves; 10 μM, from ˜20 before
  Dry response after 1 hr and washout: ~23 spikes/s
Corneal sensory nerves; topical
  Neural dry response: enhanced
[2]
  Cross-linking of monomer spiked into immunodepleted tears: formed dimers, trimers and tetramers
E. coli
  Appearance of colonies: no effect on the appearance of colonies
P. aeruginosa
  Appearance of colonies: no effect on the appearance of colonies
S. epidermidis
  Appearance of colonies: no effect on the appearance of colonies
bacteria
  Bactericidal activity: does not have bactericidal activity
Basal tearing
  Tolerability of multiple doses per day: well tolerated
Basal tearing; acute
  Increase of basal tearing over vehicle: 30%

From patent US10393755B2, “Compositions and methods for treating eye infections and disease” (UNIVERSITY OF VIRGINIA PATENT FOUNDATION, priority 2014, dated 2019)
